Biological target: T1, rhesus CDH17 overexpressed on HEK293 cells (HEK293-rhesus CDH17) (rhesus, UniProt A0A1D5R2B4 23-832)
T1 construct: whole, on cells
T1 sequence: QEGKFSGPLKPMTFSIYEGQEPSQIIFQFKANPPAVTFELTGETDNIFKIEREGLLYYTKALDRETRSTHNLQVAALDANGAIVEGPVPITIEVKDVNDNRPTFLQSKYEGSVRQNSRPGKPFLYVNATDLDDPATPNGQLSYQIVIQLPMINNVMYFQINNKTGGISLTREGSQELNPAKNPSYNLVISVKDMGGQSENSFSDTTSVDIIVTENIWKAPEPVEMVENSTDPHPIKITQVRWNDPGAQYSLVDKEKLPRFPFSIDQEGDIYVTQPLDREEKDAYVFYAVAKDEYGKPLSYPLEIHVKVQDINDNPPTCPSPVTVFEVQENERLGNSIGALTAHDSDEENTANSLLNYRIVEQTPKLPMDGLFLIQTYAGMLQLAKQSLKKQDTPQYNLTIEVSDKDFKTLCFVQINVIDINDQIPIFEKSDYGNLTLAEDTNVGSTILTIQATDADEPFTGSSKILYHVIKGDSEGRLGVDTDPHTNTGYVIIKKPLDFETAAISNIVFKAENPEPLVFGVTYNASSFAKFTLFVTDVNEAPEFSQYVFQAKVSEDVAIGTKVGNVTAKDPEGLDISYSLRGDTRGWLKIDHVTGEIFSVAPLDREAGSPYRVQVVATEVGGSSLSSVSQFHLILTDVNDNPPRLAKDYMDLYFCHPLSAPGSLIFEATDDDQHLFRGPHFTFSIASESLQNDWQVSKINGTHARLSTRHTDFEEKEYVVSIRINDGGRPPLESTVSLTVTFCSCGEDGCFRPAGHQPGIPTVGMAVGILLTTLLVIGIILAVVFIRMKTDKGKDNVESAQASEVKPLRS
Experiment: flow cytometry, HEK293-rhesus CDH17 cells

- EC50: 225 pM
B1: 29H8D3-z12 (antibody, V domains shown)
VH: QVQLVQSGAEVKKPGASVKVSCKASGYTFTDHTIHWMRQRPGQGLEWIGYIYPRDGYTKYNEKFKDRATLTADTSTSTAYMELRSLRSDDTAVYYCARFYYGYWYFDVWGQGTTVTVSS
VL: DIVMTQSPLSLPVTPGEPASISCRSSKSLLRSNGNTYLYWFLQKPGQSPQVLIYRMSNLASGVPDRFSGSGSGTDFTLKISRVEAEDVGVYYCMQHLEYPFTFGQGTKLEIK
notes: Humanized, human IgG1 constant region; also called 29H8D3-z12 mAb
